Reference: paper PMC5662687 (2017)

Target: LFA-1 I domain I domain (Homo sapiens, UniProt P20701)
Test: SPR

Kd: 1500 µM
B1: ICAM-1 (protein)
chain: QTSVSPSKVILPRGGSVLVTCSTSCDQPKLLGIETPLPKKELLLPGNNRKVYELSNVQEDSQPMCYSNCPDGQSTAKTFLTVYWTPERVELAPLPSWQPVGKNLTLRCQVEGGAPRANLTVVLLRGEKELKREPAVGEPAEVTTTVLVRRDHHGANFSCRTELDLRPQGLELFENTSAPYQLQTFVLPATPPQLVSPRVLEVDTQGTVVCSLDGLFPVSEAQVHLALGDQRLNPTVTYGNDSFSAKASVSVTAEDEGTQRLTCAVILGNQSQETLQTVTIYSFPAPNVILTKPEVSEGTEVTVKCEAHPRAKVTLNGVPAQPLGPRAQLLLKATPEDNGRSFSCSATLEVAGQLIHKNQTRELRVLYGPRLDERDCPGNWTWPENSQQTPMCQAWGNPLPELKCLKDGTFPLPIGESVTVTRDLEGTYLCRARSTQGEVTRKVTVNVLSPRYE
